Patent publication EP0762881B1

Biological target: anti-dnaJ antibodies in sera obtained from patients with early stage RA
Experiment: inhibition ELISA; rdnaJ-coated plates, sera 1:100 preincubated with the peptide, goat anti-human IgG detection

Binder QKRAAYDQYGHAAFE [wild-type dnaJ peptide …] has an inhibition of antibody binding to rdnaJ, fold against control sera of 3 fold.
